Reference: IntAct's records for PubMed 31515488

B1: Protein phosphatase 1 regulatory inhibitor subunit 16B (Homo sapiens), Q96T49 (parent)
chain: MASHVDLLTELQLLEKVPTLERLRAAQKRRAQQLKKWAQYEQDLQHRKRKHERKRSTGGRRKKVSFEASVALLEASLRNDAEEVRYFLKNKVSPDLCNEDGLTALHQCCIDNFEEIVKLLLSHGANVNAKDNELWTPLHAAATCGHINLVKILVQYGADLLAVNSDGNMPYDLCEDEPTLDVIETCMAYQGITQEKINEMRVAPEQQMIADIHCMIAAGQDLDWIDAQGATLLHIAGANGYLRAAELLLDHGVRVDVKDWDGWEPLHAAAFWGQMQMAELLVSHGASLSARTSMDEMPIDLCEEEEFKVLLLELKHKHDVIMKSQLRHKSSLSRRTSSAGSRGKVVRRASLSDRTNLYRKEYEGEAILWQRSAAEDQRTSTYNGDIRETRTDQENKDPNPRLEKPVLLSEFPTKIPRGELDMPVENGLRAPVSAYQYALANGDVWKVHEVPDYSMAYGNPGVADATPPWSSYKEQSPQTLLELKRQRAAAKLLSHPFLSTHLGSSMARTGESSSEGKAPLIGGRTSPYSSNGTSVYYTVTSGDPPLLKFKAPIEEMEEKVHGCCRIS
partner: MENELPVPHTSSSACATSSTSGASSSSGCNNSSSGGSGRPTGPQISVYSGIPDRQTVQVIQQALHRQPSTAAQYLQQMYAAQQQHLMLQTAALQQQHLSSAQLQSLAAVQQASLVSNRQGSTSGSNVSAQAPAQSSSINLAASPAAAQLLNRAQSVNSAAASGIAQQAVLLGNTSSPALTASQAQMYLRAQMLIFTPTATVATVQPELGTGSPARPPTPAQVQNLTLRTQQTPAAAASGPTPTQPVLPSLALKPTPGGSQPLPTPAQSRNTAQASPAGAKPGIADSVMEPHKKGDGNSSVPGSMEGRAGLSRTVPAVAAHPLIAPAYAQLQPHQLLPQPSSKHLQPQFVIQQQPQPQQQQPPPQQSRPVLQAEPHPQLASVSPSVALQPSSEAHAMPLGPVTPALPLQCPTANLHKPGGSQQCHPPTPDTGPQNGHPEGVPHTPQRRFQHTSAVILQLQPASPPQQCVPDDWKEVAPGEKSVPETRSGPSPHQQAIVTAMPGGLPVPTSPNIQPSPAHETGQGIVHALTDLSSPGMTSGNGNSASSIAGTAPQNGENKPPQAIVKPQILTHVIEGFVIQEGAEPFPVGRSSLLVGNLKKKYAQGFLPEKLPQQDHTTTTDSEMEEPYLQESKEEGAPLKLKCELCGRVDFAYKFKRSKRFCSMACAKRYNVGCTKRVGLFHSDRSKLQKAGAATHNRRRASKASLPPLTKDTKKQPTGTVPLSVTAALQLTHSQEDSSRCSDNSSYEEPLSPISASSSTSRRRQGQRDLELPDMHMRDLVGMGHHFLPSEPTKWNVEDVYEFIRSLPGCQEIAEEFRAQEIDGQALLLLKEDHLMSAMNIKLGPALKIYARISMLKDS
B2: Coiled-coil domain-containing protein 33 (Homo sapiens), Q8N5R6-5 (parent)
chain: MGEPGPPSPPAPKAAPGLIDSFSEMNNYRRAMQKMAEDILSLRRQASILEGENRILRSRLAQQEEEEGQGKASEAQNTVSMKQKLLLSELDMKKLRDRVQHLQNELIRKNDREKELLLLYQAQQPQAALLKQYQGKLQKMKALEETVRHQEKVIEKMERVLEDRLQDRSKPPPLNRQQGKPYTGFPMLSASGLPLGSMGENLPVELYSVLLAENAKLRTELDKNRHQQAPIILQQQALPVDPGELGAGGDLTERLQETHGPGHSECTETLPAQDLLSGTSDKFNLLAKLEHAQSRILSLESQLEDSARRWGREKQDLATRLQEQEKGFRHPSNSIIIEQPVSDPPGVAPRGSGGGAGSHRTPKVTGP
partner: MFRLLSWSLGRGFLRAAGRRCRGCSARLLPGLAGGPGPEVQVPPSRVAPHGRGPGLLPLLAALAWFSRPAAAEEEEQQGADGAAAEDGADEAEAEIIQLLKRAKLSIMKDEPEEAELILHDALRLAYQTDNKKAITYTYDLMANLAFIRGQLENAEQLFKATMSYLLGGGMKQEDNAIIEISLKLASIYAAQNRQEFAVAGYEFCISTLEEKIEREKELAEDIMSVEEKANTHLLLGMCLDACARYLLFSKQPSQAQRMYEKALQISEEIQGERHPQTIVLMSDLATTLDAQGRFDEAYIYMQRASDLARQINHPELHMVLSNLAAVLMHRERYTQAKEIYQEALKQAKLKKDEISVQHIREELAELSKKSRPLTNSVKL
B3: Transcription factor 12 (Homo sapiens), Q99081 (parent)
chain: MNPQQQRMAAIGTDKELSDLLDFSAMFSPPVNSGKTRPTTLGSSQFSGSGIDERGGTTSWGTSGQPSPSYDSSRGFTDSPHYSDHLNDSRLGAHEGLSPTPFMNSNLMGKTSERGSFSLYSRDTGLPGCQSSLLRQDLGLGSPAQLSSSGKPGTAYYSFSATSSRRRPLHDSAALDPLQAKKVRKVPPGLPSSVYAPSPNSDDFNRESPSYPSPKPPTSMFASTFFMQDGTHNSSDLWSSSNGMSQPGFGGILGTSTSHMSQSSSYGNLHSHDRLSYPPHSVSPTDINTSLPPMSSFHRGSTSSSPYVAASHTPPINGSDSILGTRGNAAGSSQTGDALGKALASIYSPDHTSSSFPSNPSTPVGSPSPLTGTSQWPRPGGQAPSSPSYENSLHSLQSRMEDRLDRLDDAIHVLRNHAVGPSTSLPAGHSDIHSLLGPSHNAPIGSLNSNYGGSSLVASSRSASMVGTHREDSVSLNGNHSVLSSTVTTSSTDLNHKTQENYRGGLQSQSGTVVTTEIKTENKEKDENLHEPPSSDDMKSDDESSQKDIKVSSRGRTSSTNEDEDLNPEQKIEREKERRMANNARERLRVRDINEAFKELGRMCQLHLKSEKPQTKLLILHQAVAVILSLEQQVRERNLNPKAACLKRREEEKVSAVSAEPPTTLPGTHPGLSETTNPMGHM
partner: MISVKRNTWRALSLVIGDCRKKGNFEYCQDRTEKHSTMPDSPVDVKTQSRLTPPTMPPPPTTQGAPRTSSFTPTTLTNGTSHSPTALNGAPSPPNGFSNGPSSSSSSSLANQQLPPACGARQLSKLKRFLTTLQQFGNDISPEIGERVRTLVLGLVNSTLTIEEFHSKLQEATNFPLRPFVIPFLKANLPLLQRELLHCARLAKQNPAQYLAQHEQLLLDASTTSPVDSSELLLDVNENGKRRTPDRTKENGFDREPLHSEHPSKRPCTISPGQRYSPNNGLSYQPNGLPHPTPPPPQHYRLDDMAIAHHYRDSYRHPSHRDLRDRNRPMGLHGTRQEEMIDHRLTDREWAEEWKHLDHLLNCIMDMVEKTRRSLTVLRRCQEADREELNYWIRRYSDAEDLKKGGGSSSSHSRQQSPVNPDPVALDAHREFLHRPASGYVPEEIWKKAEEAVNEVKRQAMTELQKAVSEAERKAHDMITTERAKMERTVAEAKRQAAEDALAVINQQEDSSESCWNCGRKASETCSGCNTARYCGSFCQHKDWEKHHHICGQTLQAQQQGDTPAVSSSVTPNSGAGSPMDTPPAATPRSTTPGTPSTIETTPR
B4: Elongin-A2 (Homo sapiens), Q8IYF1 (parent)
chain: MAAGSTTLHAVEKLQVRLATKTEPKKLEKYLQKLSALPMTADILAETGIRKTVKRLRKHQHVGDFARDLAARWKKLVLVDRNTRPGPQDPEESASRQRFGEALQDQEKAWGFPENATAPRSPSHSPEHRRTARRTPPGQQRPHPRSHSREPRAERKCPRIAPADSGRYRASPTRTAPLRMPEGPEPAAPGKQPGRGHTHAAQGGPLLCPGCQGQPQGKAVVSHSKGHKSSRQEKRPLCAQGDWHSPTLIREKSCGACLREETPRMPSWASARDRQPSDFKTDKEGGQAGSGQRVPALEEAPDSHQKRPQHSHSNKKRPSLDGRDPGNGTHGLSPEEKEQLSNDRETQEGKPPTAHLDRTSVSSLSEVEEVDMAEEFEQPTLSCEKYLTYDQLRKQKKKTGKSATTALGDKQRKANESKGTRESWDSAKKLPPVQESQSERLQAAGADSAGPKTVPSHVFSELWDLSEAWMQANYDPLSDSDSMTSQAKPEALSSPKFREEAAFPGRRVNAKMPVYSGSRPACQLQVPTLRQQCAQVLRNNPDALSDVGEVPYWVLEPVLEGWRPDQLYRRKKDNHALVRETDELRRNHCFQDFKEEKPQENKTWREQYLRLPDAPEQRLRVMTTNIRSARGNNPNGREAKMICFKSVAKTPYDTSRRQEKSAGDADPENGEIKPASKPAGSSHTPSSQSSSGGGRDSSSSILRWLPEKRANPCLSSSNEHAAPAAKTRKQAAKKVAPLMAKAIRDYKRRFSRR
partner: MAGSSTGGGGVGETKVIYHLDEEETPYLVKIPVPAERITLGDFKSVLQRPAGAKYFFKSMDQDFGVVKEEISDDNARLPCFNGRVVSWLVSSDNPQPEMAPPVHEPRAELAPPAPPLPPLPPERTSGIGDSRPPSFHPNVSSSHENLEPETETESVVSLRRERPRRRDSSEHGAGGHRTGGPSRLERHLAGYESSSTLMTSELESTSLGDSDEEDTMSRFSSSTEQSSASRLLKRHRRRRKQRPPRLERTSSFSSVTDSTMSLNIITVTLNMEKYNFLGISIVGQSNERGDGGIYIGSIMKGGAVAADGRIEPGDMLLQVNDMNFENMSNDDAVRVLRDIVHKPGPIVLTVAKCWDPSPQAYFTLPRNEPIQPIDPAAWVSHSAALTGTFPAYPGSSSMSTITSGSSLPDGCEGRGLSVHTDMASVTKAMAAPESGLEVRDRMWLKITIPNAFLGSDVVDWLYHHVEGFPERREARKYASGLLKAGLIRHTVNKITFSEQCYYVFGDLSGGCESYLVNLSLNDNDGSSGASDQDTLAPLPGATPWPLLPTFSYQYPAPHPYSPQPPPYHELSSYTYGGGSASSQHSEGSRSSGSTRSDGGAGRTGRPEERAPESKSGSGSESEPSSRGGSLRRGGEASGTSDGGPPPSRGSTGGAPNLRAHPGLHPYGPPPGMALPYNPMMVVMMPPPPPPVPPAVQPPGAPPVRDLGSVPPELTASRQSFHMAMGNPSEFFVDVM

Variants of: B1
Conditions: with phc2_human PHC2, Q8IXK0

effect of a mutation on the interaction | Variant
with no effect | P519S

Variants of: B2
Conditions: with ttc19_human TTC19, Q6DKK2

effect of a mutation on the interaction | Variant
with no effect | G196R
with no effect | M25V
with no effect | P203L
with no effect | R30L

Variants of: B3
Conditions: with mtg8_human RUNX1T1, Q06455

effect of a mutation on the interaction | Variant
with no effect | G64R
with no effect | A458V
with no effect | G300S
with no effect | L483R
with no effect | N479S
with no effect | I11M
with no effect | D565V
with no effect | A174V
with no effect | V31A

Variants of: B4
Conditions: with dvl2_human DVL2, O14641

effect of a mutation on the interaction | Variant
with no effect | A403S
with no effect | A446T
with no effect | T6S
with no effect | R179P
with no effect | R498Q
with no effect | D302H
with no effect | C254F
